# Test results reported in IntAct's records for PubMed 35016035.
# B1: Speedy protein E4 (Homo sapiens), A6NLX3 (parent)
# chain: MASGQARPPFEEESPQPSTTVRSPEVVVDDEVPGPSAPWIDPSPQPQSLGLKRKSEWSDESEEELEEELELERAPEPEDTWVVETLCGLKMKLKRKRASSVLPEHHEAFNRLLGDPVVQKFLAWDKDLRVSDKYLLAMVIAYFSRAGLFSWQYQRIHFFLALYLASDMEEDNQAPKQDIFSFLYGKNYSQRPLFHKLRYQLLCSMRWRTWVSPEEMEEIQAYDPEHWVWARDRTLIS
# B2: Protein FAM90A1 (Homo sapiens), Q86YD7 (parent)
# chain: MMARRDPKPGAKRLVRAQTLQKQRRAPVGPRAPPPDEEDPRLKCKNCEAFGHTARSTRCPMKCWKAALVPPNFGEKEGKENLKPWKPQVEANPGPLNKDKGEKEERPRPQDPQRKALLHIFSRKPPEKPLPNQKGSTESSDYLRVASGPMPVHTTSKRPRVDPVLSDRSATEMSDRGSVLASLSPLRKASLSSSSSLGPKERQTGAAADIPQTAVRHQGPEPLLVVKPTHSSPAGGCREVPQAASKTHGLLQAVSPQAQDKRPAVTSQPCPPAATHSLGLGSNLSFGPGAKRSAPAPIQACLNFPKKPRLGPFQIPESAIQGGELGAPENLQPPPAATELGPRTSPQTGTRTPAQVLSGDRQPPHSRPCLPTAQACTMSHHPAASHDGAQPLRVLFRRLENGRWSSSLLTAPSFHSPEKPGAFLAQSPHVSEKSEGPCVRVPPSVLYEDLQVPSSSEDSDSDLE
# Variants of: B1
# Details: with brd4_human BRD4, O60885
row,effect of a mutation on the interaction,Variant
1,disrupting interaction strength,V83D;L86D;M91D;L93D

# Variants of: B2
# Details: with brd4_human BRD4, O60885
row,effect of a mutation on the interaction,Variant
1,disrupting interaction strength,V394D;F396D;W404D;S406D
